Measurements: patent US20050107601A1

How the values were obtained:
[1] = target: erbB receptors on primary chick myotube cultures; experiment: cell-based or functional assay
[2] = target: erbB receptors on primary chick myotube cultures; experiment: radioligand binding: 0.1 nM 125I-IG-EGF on chick myotubes, 2 hrs on ice, with or without 1 µM cold IG-EGF; cpm bound

| duration of p185 phosphorylation after the ligand is washed out (1 nM, 45 min treatment), chick myotubes [1] [h] | erbB receptor (p185) tyrosine phosphorylation on chick myotubes, 45 min, anti-phosphotyrosine western blot; potency relative to the EGF form [1] [fold] | specific binding as percent of total binding [2] [%] | Substance |
| --- | --- | --- | --- |
| 8 | 4 | 25 | Recombinant human NRG IG-EGF domain construct (amino acids 14-246 of the human β1 form) (from UniProt Q02297 14-246) (ligand) |
| < 1 | – | – | Recombinant human NRG isolated EGF-like domain construct (amino acids 177-246 of the human β1 form) (from UniProt Q02297 177-246) (ligand) |
